Measurements published in patent US9102755B2, “Highly stabilized epidermal growth factor mutants” (PnP Biopharm Co., Ltd., priority 2013, dated 2015).
“Also recorded” adds a separate entry of the source.

Assays:
[1] = Circular dichroism after incubation at 60° C.; type: physicochemical; settings: for Percentage to wild-type EGF (CD signal value at 200 nm): 0.3 mg/ml, 20 mM sodium phosphate pH 5.5, 60° C., five days
Method: The stabilities of wild-type EGF and mutants should be confirmed through being stored at room temperature for a long period of time, but there is a disadvantage in that the time is too long. Therefore, the incubation test was performed at extreme environment for a short period of time. 0.3 mg/ml of each of the wild-type EGF and mutants was dissolved in 20 mM sodium phosphate (pH 5.5), and then subjected to the incubation in a water bath of 60° C. The sampling was performed per 24 hours unit, and then centrifuged at 13000 rpm and 4° C. for 15 minutes to collect the supernatant. The supernatant was diluted with 20 mM sodium phosphate (pH 5.5), and its structure was measured by using a circular dichroism. And then, the supernatant was added to 0.1 cm cell, and its structure was analyzed under the conditions of, in a region of 190 nm to 250 nm, band width 1 nm, response 0.25 sec, data pitch 0.1 nm, scanning speed 20 nm/min, cell length 1 cm, accumulation 8 times, a temperature of 20° C. […] In order to easily confirm such a result, the graph as illustrated in FIG. 3 is used using the ratio of the signal value at a first day to the signal value at 200 nm that has the biggest difference of signals. Table. […] From such a result, it can be confirmed that the EGF mutants prepared in the present invention have excellent thermal stability and solubility.

[2] = Solubility of wild-type and mutant EGFs in 20 mM sodium phosphate (pH 5.5); type: physicochemical; settings: for Solubility: 1 mg in 1 ml 20 mM sodium phosphate pH 5.5, supernatant, Bradford and UV method; for Solubility (Comparison with wild-type %): 20 mM sodium phosphate pH 5.5, relative to wild-type EGF
Method: 1 mg of the respective wild-type and mutant EGFs prepared was dissolved in 1 ml of 20 mM sodium phosphate (pH 5.5 that is the similarly pH environment as cosmetics). In order to remove undissolved EGF, the mixture thus obtained was centrifuged and then supernatant was obtained. The concentration of the supernatant thus obtained was measured by using a Bradford method and UV method.

[3] = Structure and thermal stability (Tm) by circular dichroism; type: physicochemical; settings: 0.1 mg/ml; for Structure change: circular dichroism 190-250 nm, 20 mM sodium phosphate pH 5.5, 20° C., versus wild-type EGF; for Tm (melting temperature): circular dichroism, 20° C. to 95° C. at 1° C./min
Method: The structure and thermal stability of the purified EGF mutant were measured through a circular dichroism analysis using a J-810 spectrometer (JASCO). As the wild-type EGF, the purified EGF prepared in Example 2 was used. In order to analyze the structure, each EGF was dissolved in 20 mM sodium phosphate (pH 5.5) to be uniformly a final concentration of 0.1 mg/ml. And then, the dissolved EGF solution was added to 0.1 cm cell, and then its structure was analyzed under the conditions of, as 190 nm to 250 nm region, band width 1 nm, response 0.25 sec, data pitch 0.1 nm, scanning speed 20 nm/min, cell length 1 cm, accumulation 8 times, and a temperature of 20° C.
In order to analyze the thermal stability, a wavelength of 200 nm was determined through a comparison analysis of far-UV at the Tm (melting temperature) of 20° C. and 95° C., and progressed in a concentration of 0.1 mg/ml in 0.1 cm cell. As the conditions, it was measured at 20° C. to 95° C. under condition of 1° C./min.
The structure is changed at the band of about 195 nm when generating a folding-unfolding phenomenon. Using it, the melting temperature (Tm) was measured in the range of 20 to 95° C., and thus the accurate Tm value was analyzed. As a result, as for the structure change, most mutants had the similar structure as the wild-type EGF, and thus there were few changes. […] It can be confirmed that the thermal stabilities of M2 and M3 were improved by 87° C.

NIH3T3 cell line = test: Test of cell proliferation after incubation in cosmetic basic essence; type: cell-based; settings: 60° C., 5 days, versus wild-type EGF, FIG. 4
Method: And then, the incubated samples were centrifuged to collect supernatants.

| Substance | Percentage to wild-type EGF (CD signal value at 200 nm) [1] [%] | Solubility [2] [µg/mL] | Solubility (Comparison with wild-type %) [2] [%] | Structure change [3] | Tm (melting temperature) [3] | CD structure signal over time (in words) ([1]; 60° C., 20 mM sodium phosphate pH 5.5, sampling per 24 hours, compared with the mutants, FIG. 3) | Tm (melting temperature) ([3]; listed as Wide type EGF) | Cell proliferation activity after incubation (NIH3T3 cell line) |
| --- | --- | --- | --- | --- | --- | --- | --- | --- |
| C-25-1: EGF mutant, 25th alanine substituted with serine (SEQ ID NO: 72) (NSDSECPLSHDGYCLHDGVCMYIESLDKYACNCVVGYIGERCQYRDLKWWELR; not fully specified; Epidermal growth factor; UniProt P01133 971-1023, looked up, variant A25S) | 106.38 | 617.8 | 122 | No change | (76° C.) | – | – | – |
| Wild-type EGF: human epidermal growth factor, 53 amino acids, SEQ ID NO:1, produced in E. coli (Example 2) [reference compound] | 100 | 507.3 | 100 | – | 76 °C | significantly decreased | (76° C.) | – |
| M3: EGF mutant by fusion of A-8-2, D-38-10, and E-46-2; SEQ ID NO:2 (NSDSECPSSHDGYCLHDGVCMYIEALDKYACNCVVGYCGERCQYRCLKWWELR; not fully specified) | – | 681.7 | 134 | slightly changed; also recorded: Little change | – | – | – | higher cell proliferation activity |
